{"source": "patent US20230272109A1", "binders": {"B1": {"name": "RGCLN18.2 antibody (antibody, human IgG1, kappa, V domains shown)", "VH": "QVQLVQSGAEVKKPGASVKVSCKASGYAFTNYLIEWVRQAPGQGLEWMGLINPGSGGTNYNEKFKGRVTMTRDTSTSTVYMELSSLRSEDTAVYYCARGGYYGNSFAYWGQGTLVTVSS", "VL": "DIVMTQSPLSLPVTPGEPASISCKSSQSLLNSGNQKNYLTWYLQKPGQSPQLLIYWASTRESGVPDRFSGSGSGTDFTLKISRVEAEDVGVYYCQNAYYYPYTFGGGTKVEIKR"}}, "target": "Claudin 18.2 (UniProt P56856)", "assay": "flow cytometry (FACS), cells not given"}
{"binder": "B1", "values": [{"measurement": "EC50", "value": 0.166, "unit": "µg/mL"}]}
